B1: anti-EGFR single-domain antibody aEG1B4 (purified) (VHH)
VHH: QVQLLESGGGLVQPGGSLRLSCAASGVNVSNEVMSWVRQAPGKGLEWVSTIANHSGSTYYADSVKGRFTISRDNSKNTLYLQMNSLRAEDTAVYYCATLYSGATKQLEYWGQGTLVTVSS
notes: fully human VH domain on the V3-23/D47 framework with diversified CDR1-3; Fully human VH-only single-domain antibody (about 15 kDa), selected from the Source BioScience human domain antibody library; subcloned NcoI/NotI into pET22b(+); also called anti-EGFR sdAb; source: E. coli BL21 (DE3), pET22b(+), purified (Ni-NTA)
B2: anti-EGFR single-domain antibody aEG2C7 (purified) (VHH)
VHH: QVQLLESGGGLVQPGGSLRLSCAASGFTFNNEIMAWVRQAPGKGLEWVSSIAANNGSTYYADSVKGRFTISRDNSKNTLYLQMNSLRAEDTAVYYCARYAAEPHTYSMGNKSLRYWGQGTLVTVSS
notes: as for B1
B3: anti-EGFR single-domain antibody aEG2E12 (purified) (VHH)
VHH: QVQLLESGGGLVQPGGSLRLSCAASGYSSNNEFMAWVRQAPGKGLEWVSAISTRNGSTYYADSVKGRFTISRDNSKNTLYLQMNSLRAEDTAVYYCAGVSYRRPQQLKYWGQGTLVTVSS
notes: as for B1
B4: anti-EGFR single-domain antibody aEG4D9 (purified) (VHH)
VHH: QVQLLESGGGLVQPGGSLRLSCAASGDMLSPDNMTWVRQAPGKGLEWVSTIHKTDGSTYYADSVKGRFTISRDNSKNTLYLQMNSLRAEDTAVYYCAGLRSRGLSSKYLEYWGQGTLVTVSS
notes: as for B1
B5: anti-EGFR single-domain antibody aEG6B2 (purified) (VHH)
VHH: QVQLLESGGGLVQPGGSLRLSCAASGFNVNPKYMTWVRQAPGKGLEWVSSIRSPGGSTYYADSVKGRFTISRDNSKNTLYLQMNSLRAEDTAVYYCASVSRDEKYMRFWGQGTLVTVSS
notes: as for B1
B6: aEG2C7 displayed on phage (phage clone) (VHH)
VHH: B2 VHH
notes: detected by anti-M13-HRP; source: E. coli TG1, phagemid pR2, rescued with M13 helper phage, phage clone
B7: aEG2E12 displayed on phage (phage clone) (VHH)
VHH: B3 VHH
notes: as for B6
B8: aEG1B4 displayed on phage (phage clone) (VHH)
VHH: B1 VHH
notes: as for B6
B9: aEG4D9 displayed on phage (phage clone) (VHH)
VHH: B4 VHH
notes: as for B6
B10: aEG6B2 displayed on phage (phage clone) (VHH)
VHH: B5 VHH
notes: as for B6

What follows are binders tested against T1, EGFR on human cancer cells A549, MCF-7 and DU145 (Homo sapiens, UniProt P00533) (assay: flow cytometry on cells; live cells (A549, MCF-7, DU145) in ice-cold PBS with BSA incubated with purified sdAbs; detected with protein A-FITC). Conditions: one partner purified.
T1 construct: Epidermal growth factor receptor (EGFR, HER1, ERBB1), endogenous on the surface of human cancer cell lines; also called HER1; ERBB1; source: endogenous, on live A549, MCF-7 and DU145 cells

**Q.** Does B1 bind?
**A.** binds

**Q.** Does B2 bind?
**A.** binds

**Q.** Does B3 bind?
**A.** binds

**Q.** Does B4 bind?
**A.** binds

**Q.** Does B5 bind?
**A.** binds

What follows are binders tested against T2, BMP2 (Homo sapiens (assumed), UniProt P12643) (assay: ELISA; monoclonal phage ELISA: wells of 96-well plates coated with EGFR protein fragment or unrelated antigens, blocked with 2% BSA; phage clones added; anti-M13-HRP, TMB, absorbance at 450 nm). Conditions: one partner purified.
T2 construct: BMP2, unrelated antigen used as negative control
T2 sequence (P12643 24-396): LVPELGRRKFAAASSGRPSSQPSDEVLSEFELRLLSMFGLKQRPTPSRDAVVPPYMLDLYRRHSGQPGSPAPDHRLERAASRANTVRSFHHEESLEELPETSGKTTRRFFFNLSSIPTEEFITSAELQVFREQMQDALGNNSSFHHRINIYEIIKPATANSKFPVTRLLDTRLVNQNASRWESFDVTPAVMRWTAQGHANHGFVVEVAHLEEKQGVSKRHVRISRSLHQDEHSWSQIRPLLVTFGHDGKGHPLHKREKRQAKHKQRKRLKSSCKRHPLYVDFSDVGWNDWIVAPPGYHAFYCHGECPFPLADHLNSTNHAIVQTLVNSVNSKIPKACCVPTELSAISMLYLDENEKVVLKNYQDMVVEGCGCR

**Q.** Does B6 bind?
**A.** no binding

**Q.** Does B7 bind?
**A.** no binding

**Q.** Does B8 bind?
**A.** no binding

**Q.** Does B9 bind?
**A.** no binding

**Q.** Does B10 bind?
**A.** no binding

Each binder was assayed against T3, EndoF1 (Elizabethkingia meningoseptica (assumed), UniProt P36911) in the same assay as above. Conditions: one partner purified.
T3 construct: EndoF1, unrelated antigen used as negative control
T3 sequence (P36911 51-339): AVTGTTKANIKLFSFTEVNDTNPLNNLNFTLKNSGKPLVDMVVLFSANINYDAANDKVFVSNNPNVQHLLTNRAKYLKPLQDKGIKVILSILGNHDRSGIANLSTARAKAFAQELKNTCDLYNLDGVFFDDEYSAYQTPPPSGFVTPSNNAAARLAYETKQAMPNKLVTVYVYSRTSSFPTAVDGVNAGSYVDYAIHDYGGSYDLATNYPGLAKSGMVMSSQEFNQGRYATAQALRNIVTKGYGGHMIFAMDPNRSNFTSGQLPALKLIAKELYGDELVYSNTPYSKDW

**Q.** Does B6 bind?
**A.** no binding

**Q.** Does B7 bind?
**A.** no binding

**Q.** Does B8 bind?
**A.** no binding

**Q.** Does B9 bind?
**A.** no binding

**Q.** Does B10 bind?
**A.** no binding

The binders below were run against T4, FGF21 (Homo sapiens (assumed), UniProt Q9NSA1) in the same assay as above. Conditions: one partner purified.
T4 construct: FGF21, unrelated antigen used as negative control
T4 sequence (Q9NSA1 29-209): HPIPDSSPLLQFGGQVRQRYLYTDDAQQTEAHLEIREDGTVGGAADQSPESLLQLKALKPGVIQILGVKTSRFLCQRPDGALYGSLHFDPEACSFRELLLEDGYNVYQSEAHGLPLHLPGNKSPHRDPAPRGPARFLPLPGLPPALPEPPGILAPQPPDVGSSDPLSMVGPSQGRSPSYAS

**Q.** Does B6 bind?
**A.** no binding

**Q.** Does B7 bind?
**A.** no binding

**Q.** Does B8 bind?
**A.** no binding

**Q.** Does B9 bind?
**A.** no binding

**Q.** Does B10 bind?
**A.** no binding

Each binder was assayed against T2, BMP2 (assay: ELISA; wells of 96-well plates coated with EGFR protein fragment or unrelated antigens; purified sdAbs added; protein A-HRP, TMB, absorbance at 450 nm). Conditions: both partners purified.

**Q.** Does B1 bind?
**A.** no binding

**Q.** Does B2 bind?
**A.** no binding

**Q.** Does B3 bind?
**A.** no binding

**Q.** Does B4 bind?
**A.** no binding

**Q.** Does B5 bind?
**A.** no binding

What follows are binders tested against T3, EndoF1 in the same assay as above. Conditions: both partners purified.

**Q.** Does B1 bind?
**A.** no binding

**Q.** Does B2 bind?
**A.** no binding

**Q.** Does B3 bind?
**A.** no binding

**Q.** Does B4 bind?
**A.** no binding

**Q.** Does B5 bind?
**A.** no binding

Each binder was assayed against T4, FGF21 in the same assay as above. Conditions: both partners purified.

**Q.** Does B1 bind?
**A.** no binding

**Q.** Does B2 bind?
**A.** no binding

**Q.** Does B3 bind?
**A.** no binding

**Q.** Does B4 bind?
**A.** no binding

**Q.** Does B5 bind?
**A.** no binding

Each binder was assayed against T5, EGFR complete extracellular domain protein (Homo sapiens (assumed), UniProt P00533) (assay: far-Western, overlay or dot blot; Western blotting: 0.5 ug EGFR complete extracellular domain separated by SDS-PAGE, transferred to PVDF; blot incubated with the sdAbs, then protein A-HRP, chemiluminescence). Conditions: both partners purified.
T5 construct: Epidermal growth factor receptor (EGFR, HER1, ERBB1), complete extracellular domain, bought; also called EGFR complete extracellular fragment; EGFR-ECD; source: bought: Shanghai Bootech BioSci. and Technol

**Q.** Does B1 bind?
**A.** binds

**Q.** Does B2 bind?
**A.** binds

**Q.** Does B3 bind?
**A.** binds

**Q.** Does B4 bind?
**A.** binds

**Q.** Does B5 bind?
**A.** binds

From publication PMC7541222, “Novel single-domain antibodies against the EGFR domain III epitope exhibit the anti-tumor effect” (Journal of Translational Medicine, 2020)
